Laboratory results: patent publication US20030113828A1, “Compositions and methods for modulating Syk function” (priority 2001, published 2003)

B1: Zap-70(1-132): Zap-70 truncation lacking the C-terminal half of interdomain A (protein)
chain: MPDPAAHLPFFYGSISRAEAEEHLKLAGMADGLFLLRQCLRSLGGYVLSLVHDVRFHHFPIERQLNGTYAIAGGKAHCGPAELCEFYSRDPDGLPCNLRKPCNRPSGLEPQPGVFDCLRDAMVRDYVRQTWK
B2: Zap-70(1-337): Zap-70 fragment containing both SH2 and interdomains A and B (protein)
chain: MPDPAAHLPFFYGSISRAEAEEHLKLAGMADGLFLLRQCLRSLGGYVLSLVHDVRFHHFPIERQLNGTYAIAGGKAHCGPAELCEFYSRDPDGLPCNLRKPCNRPSGLEPQPGVFDCLRDAMVRDYVRQTWKLEGEALEQAIISQAPQVEKLIATTAHERMPWYHSSLTREEAERKLYSGAQTDGKFLLRPRKEQGTYALSLIYGKTVYHYLISQDKAGKYCIPEGTKFDTLWQLVEYLKLKADGLIYCLKEACPNSSASNASGAAAPTLPAHPSTLTHPQRRIDTLNSDGYTPEPARITSPDKPRPMPMDTSVYESPYSDPEELKDKKLFLKRDNL
modifications: left off: a dimerising Fc or GST
notes: Zap-70 fragment containing both SH2 and interdomains A and B

Molecular target: T1, integrin β3 cytoplasmic tail (Homo sapiens, UniProt P05106)
T1 construct: made in house
T1 sequence (P05106 742-788 limits assumed): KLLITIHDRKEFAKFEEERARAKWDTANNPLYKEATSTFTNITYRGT
Test: Affinity chromatography/direct binding of kinase fragments to integrin tail
Conditions: recombinant fragments, direct binding assay
Protocol: Following incubation, beads were washed and bound protein was analyzed by immunoblotting.
For direct binding assays, model peptides (1 mg) were dissolved in 1 ml buffer containing 20 mM Tris (pH 7.9), 500 mM NaCl, and 6 M urea. To this, 50 ul packed His-Bind® Resin (Novagen, Madison, Wis.) was added and the mixture was rotated for 1 hour at room temperature. Immobilized peptides were washed 5× in above buffer without urea, and resuspended in 500 μl buffer containing 20 mM PIPES pH 6.8, 50 mM NaCl, 3 mM MgCl2, 150 mM sucrose, 50 mM NaF, 40 mM Na4P2O7*10H2O (buffer A) supplemented with 0.1% TritonX-100 and 3 mM MgCl2. Purified GST-fusion proteins were added to 0.5 ml buffer A supplemented with 0.1% TritonX-100 and 3 mM MgCl2. Five μl of total packed resin loaded with various integrin cytoplasmic domain model proteins was added to the GST-fusion protein. The mixture was incubated for 40 minutes at room temperature with continuous rotation. The beads were then washed five times in buffer A with 0.1% TritonX-100 and 3 mM MgCl2. Bound proteins were eluted by boiling in reducing sample buffer, fractionated by SDS PAGE, and immuno-blotted.

Molecule | binding to the β3 tail
B1 | decrease in binding
B2 | bound
